Results as given in US20050053592.

T1: GST-Wts^68-414, Q9VA38
T1 chain: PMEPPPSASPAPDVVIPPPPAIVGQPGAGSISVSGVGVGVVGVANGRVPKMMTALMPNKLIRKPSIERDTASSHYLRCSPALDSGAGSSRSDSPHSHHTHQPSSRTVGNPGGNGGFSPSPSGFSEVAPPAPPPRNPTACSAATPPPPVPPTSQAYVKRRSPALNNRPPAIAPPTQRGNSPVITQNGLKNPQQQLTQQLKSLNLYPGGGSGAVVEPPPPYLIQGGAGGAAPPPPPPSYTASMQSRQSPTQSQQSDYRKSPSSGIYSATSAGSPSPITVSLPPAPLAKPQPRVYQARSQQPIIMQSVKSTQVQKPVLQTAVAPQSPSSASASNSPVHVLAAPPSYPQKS

T2: GST-Sav^362-607, Q9VCR6
T2 chain: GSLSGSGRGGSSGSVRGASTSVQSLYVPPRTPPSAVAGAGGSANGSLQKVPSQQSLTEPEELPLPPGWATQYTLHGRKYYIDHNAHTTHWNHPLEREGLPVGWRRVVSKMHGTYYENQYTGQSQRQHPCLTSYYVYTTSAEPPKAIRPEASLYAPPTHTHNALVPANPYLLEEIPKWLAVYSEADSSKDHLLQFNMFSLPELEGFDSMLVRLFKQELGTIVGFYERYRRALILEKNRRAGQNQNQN

T3: endogenous Sav (Salvador), Q9VCR6
T3 chain: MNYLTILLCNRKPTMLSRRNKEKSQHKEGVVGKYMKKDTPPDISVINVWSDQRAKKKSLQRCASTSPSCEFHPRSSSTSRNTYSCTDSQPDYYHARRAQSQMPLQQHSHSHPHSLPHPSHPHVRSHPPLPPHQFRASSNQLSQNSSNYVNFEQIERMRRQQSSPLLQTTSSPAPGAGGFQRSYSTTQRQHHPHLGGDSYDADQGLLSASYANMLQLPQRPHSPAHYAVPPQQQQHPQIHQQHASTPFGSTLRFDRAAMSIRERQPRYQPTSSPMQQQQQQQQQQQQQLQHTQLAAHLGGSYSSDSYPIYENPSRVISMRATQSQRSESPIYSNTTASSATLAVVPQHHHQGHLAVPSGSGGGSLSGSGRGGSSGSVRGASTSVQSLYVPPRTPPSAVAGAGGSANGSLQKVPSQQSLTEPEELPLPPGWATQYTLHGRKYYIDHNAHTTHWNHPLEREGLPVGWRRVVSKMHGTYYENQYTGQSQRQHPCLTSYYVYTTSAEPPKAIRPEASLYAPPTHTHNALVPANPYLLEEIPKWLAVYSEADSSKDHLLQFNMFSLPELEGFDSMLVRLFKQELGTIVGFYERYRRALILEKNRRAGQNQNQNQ


Assays:
[1] = biological target: GST-Tsc1 (control GST fusion protein)
[2] = biological target: T1, GST-Wts^68-414, Q9VA38
[3] = biological target: T2, GST-Sav^362-607, Q9VCR6
[4] = biological target: T3, endogenous Sav (Salvador), Q9VCR6

Row | Protein | in vitro kinase assay (32P phosphorylation of the GST substrate) [1] | in vitro kinase assay (32P phosphorylation of the GST substrate) [2] | in vitro kinase assay (32P phosphorylation of the GST substrate) [3] | increase in wing size (MS1096 Gal4 driver) [4]
1 | Myc-tagged Hpo (protein) MEQKLISEEDLNESEPEVTSVVDMKSPNISSSCSFFKLKKLSEESLLQPPEKVFDIMYKLGEGSYGSVYKAVHKESSSIVAIKLVPVESDLHEIIKEISIMQQCDSPYVVRYYGSYFKQYDLWICMEYCGAGSVSDIMRLRKKTLTEDEIATILSDTLQGLVYLHLRRKIHRDIKAANILLNTEGYAKLADFGVAGQLTDTMAKRNTVIGTPFWMAPEVIEEIGYDCVADIWSLGITALEMAEGKPPYGEIHPMRAIFMIPQKPPPSFREPDRWSTEFIDFVSKCLVKEPDDRATATELLEHEFIRNAKHRSILKPMLEETCAIREQQRANRSFGGVLAASQAKSLATQENGMQQHITDNAFMEDPGTLVPEKFGEYQQSSASDATMIAHAEQGVDEGTLGPGGLRNLSKAAAPAAASSAASPLDMPAVDSGTMVELESNLGTMVINSDSDDSTTAKNNDDQKPRNRYRPQFLEHFDRKNAGDGRGDEKPIATEYSPAAAEQQQQQQQQQQQQQQDEQHLASGANDLNNWEHNMEMQFQQISAINQYGLQQHQQQQQVLMAYPLMNEQLIALNNQPNLLLSNAAPMGQQGIPAAAPAQPPPAYQNQHMHTQSHAYVEGEFEFLKFLTFDDLNQRLCNIDHEMELEIEQLNKKYNAKRQPIVDAMNAKRKRQQNINNNLIKI | no signals were detected using a control substrate | a GST fusion protein containing this region of Wts was phosphorylated by Hpo | myc-tagged Hpo protein specifically phosphorylated a GST fusion protein containing the Hpo-binding region of Sav | –
2 | kinase dead Hpo^K71R mutant (UAS-hpo^K71R) (protein) MSEPEVTSVVDMKSPNISSSCSFFKLKKLSEESLLQPPEKVFDIMYKLGEGSYGSVYKAVHKESSSIVAIRLVPVESDLHEIIKEISIMQQCDSPYVVRYYGSYFKQYDLWICMEYCGAGSVSDIMRLRKKTLTEDEIATILSDTLQGLVYLHLRRKIHRDIKAANILLNTEGYAKLADFGVAGQLTDTMAKRNTVIGTPFWMAPEVIEEIGYDCVADIWSLGITALEMAEGKPPYGEIHPMRAIFMIPQKPPPSFREPDRWSTEFIDFVSKCLVKEPDDRATATELLEHEFIRNAKHRSILKPMLEETCAIREQQRANRSFGGVLAASQAKSLATQENGMQQHITDNAFMEDPGTLVPEKFGEYQQSSASDATMIAHAEQGVDEGTLGPGGLRNLSKAAAPAAASSAASPLDMPAVDSGTMVELESNLGTMVINSDSDDSTTAKNNDDQKPRNRYRPQFLEHFDRKNAGDGRGDEKPIATEYSPAAAEQQQQQQQQQQQQQQDEQHLASGANDLNNWEHNMEMQFQQISAINQYGLQQHQQQQQVLMAYPLMNEQLIALNNQPNLLLSNAAPMGQQGIPAAAPAQPPPAYQNQHMHTQSHAYVEGEFEFLKFLTFDDLNQRLCNIDHEMELEIEQLNKKYNAKRQPIVDAMNAKRKRQQNINNNLIKI | – | – | – | expression of the kinase dead Hpo^K71R mutant results in 35% increase in wing size
